Laboratory results reported in patent publication US20240279344A1 (CDR LIFE, published 2024).
Where a chain is given by its changes, count along the chain named.

B1: M0861 scFv (scFv)
scFv: QSVKESGGRLVTPGTPLTLTCTVSGFSLSNYAMSWVRQAPGKGLEYIGIVSSGGTTYYASWAKGRFTISKTSTTVDLKITSPTTEDTATYFCAKDLYYGPTTYSAFNLWGQGTLVTISSGGGGSGGGGSGGGGSGGGGASELVLTQPASVQVNLGQTVSLTCTADTLSRSYASWYQLKPGQAPVLLIYRDTSRPSGVPDRFSGSSSGNTATLTISGAQAGDEGDYVCATSDGSGSNFQLFGGGTQLTVTG
notes: Rabbit scFv identified by phage display
B2: M0859 scFv (scFv)
scFv: QSVKESGGRLVTPGTPLTLTCTVSGFSLSNYAMSWVRQAPGKGLEYIGIVSSGGTTYYASWAKGRFTISKTSTTVDLKITSPTTEDTATYFCAKDLYYGPTTYSAFNLWGQGTLVTISSGGGGSGGGGSGGGGSGGGGASELVLTQPQSVSGSLGQTVSISCKRARDNIEDYYVHWYQQHPGKTPTIVIHKDDQRPSGVPDRFSGSIDSTSNSASLTITGLLAEDEADYFCQSFDNDASPVFGGGTQLTVTG
notes: as for B1
B3: M0860 scFv (scFv)
scFv: B2 scFv with H180Y, H190Y, D237N, S239N, P240V
notes: as for B1
B4: M0858 scFv (scFv)
scFv: B2 scFv with K4E, I117V, D167N, K183R, T184S, D237N, S239N
notes: as for B1
B5: M0857 scFv (scFv)
scFv: QQQLVESGGRLVTPGTPLTLTCTASGIDLNSNAMSWVRQGPGKGLEWIGDIWSGGYTDYASWAKGRFTISKTSTTVDLKMTSLTAADTATYFCARDRLAGDGVVDYDLWGQGTLVTISSGGGGSGGGGSGGGGSGGGGASELDMTQTPASVEVAVGGTVTIKCQASQNIYSNLAWYQQKPGQRPKLLIYGASTLASGVPSRFKGSGSGTEYTLTINGVQAADAATYYCQQGFSSSNVDNVFGGGTEVVVK
notes: as for B1
B6: M0863 scFv (scFv)
scFv: PEQLMESGGGLVTPGGVLTLTCTASGFSFSSYGVNWVRQAPGKGLEWIGFIFGDGTTYYANWAKGRFTISKTSTTVDLKMTSPTTEDTATYFCARDGYGGYDYIINLWGQGTLVTVSSGGGGSGGGGSGGGGSGGGGASAQVLTQTPASVSAAVGGTVSISCQSSQSVVNNNWLAWYQQKPGQPPKLLIYKASTLESGVPSRFKGSGSGTQFTLTISGVQADDAATYYCQGAYSGNIYYNAFGGGTEVVVK
notes: as for B1
B7: M0852 scFv (scFv)
scFv: QQQLEESGGGLVTPGTPLTLTCTVSGFSLSNYAMGWVRQAPGKGLEWIGTINDGGTAFYANWLKGRFTISRTSTTVDLKITSPTTEDTATYFCARAYGSNGDVYWGYFNLWGQGTLVTVSSGGGGSGGGGSGGGGSGGGGASELVMTQTASPVSAAVGGTVTINCQASQSISSRSLSWYQQKPGQPPKLLIYEASKLASGVPSRFSGSGSGTQFTLTISGVQADDAATYYCQQGYSSSNVDNVFGGGTEVVVK
notes: as for B1
B8: M0865 scFv (scFv)
scFv: PAALMESGGRLVTPGTPLTLTCTVSGIDLSTFAMTWVRQAPGKGLEWLGIINTGGSAYYTSWAKGRFTISRTSTTVDLKITSPTTEDTATYFCARGDWSSATDLWGQGTLVTISSGGGGSGGGGSGGGGSGGGGASDPDMTQTPSSVSAAVGGTVTINCQASQSVYDNKVLAWYRQKPGQPPKLLIYKASTLASGVPSRFKGRGSGTQFTLTISGVQADDAATYYCLGEFSCSSADCHAFGGGTELEIL
notes: as for B1
B9: M0854 scFv (scFv)
scFv: QSVKESWGRLVTPGGSLTLTCTVSGIDLNNYAMGWVRQAPGKGLEWIGTINNDGATYYPSWARGRFTISKTSTTVDLKITSPTTEDTATYFCARTYGSNGDVYWGYFNLWGQGTLVTVSSGGGGSGGGGSGGGGSGGGGASALELTQTPASVEVAVGGTVTINCQASQSIGGALNWYQQKSGQPPKLLIYLASTLASGVSSRFKGSGSGTQFTLTISGVEAADAATYYCQQGYSASNIDNAFGGGTEVVVK
notes: as for B1
B10: M0851 scFv (scFv)
scFv: QEQLEESGGGLVTPGTPLTLTCTASGFSLSSYAMIWVRQAPGKGLEWIGTINDGGTAFYASWVKGRFTISRTSTTVDLKITSPTTEDTATYFCARAYGSNGDVYWGYVNLWGQGTLVTISSGGGGSGGGGSGGGGSGGGGASELVMTQTPSSVSAAVGGTVTINCQASQNIGSVFAWYQQKPGQPPKLLIYKASSLASGVPSRFKGSGSGTQFTLTISGVEAADAATYYCQQGASSSNVDNIFGGGTEVVVK
notes: as for B1
B11: M0864 scFv (scFv)
scFv: QSVKESGGGLVTPGTPLTLTCTVSGFSLSTYAISWVRQAPGKGLEWIGFIDTVDSAYYASWAKGRFTISKTSSTTVDLKMTSPTTEDTATYFCAKLRYGDYGDYTLWGQGTLVTVSSGGGGSGGGGSGGGGSGGGGASELVMTQTPSPVSGAVGGTVTIKCQASQNIYSYLAWYQQKPGQPPKLLIYKASTLASGVPSRVKGSGSGTEYTLTISGVQAADAATYYCQCTYYDSNTFGGGTEVVVK
notes: as for B1
B12: M0849 scFv (scFv)
scFv: QEQLEESGGGLVTPGGTLTLTCTVSGFSLSNYAMGWVRQAPGKGLEWIGTINDGGTAFYAKWLKGRFTISRTSTTVDLKITSPTTEDTATYFCARAYGSNGDVYWGYFNLWGQGTLVTISSGGGGSGGGGSGGGGSGGGGASELVMTQTPSSVSEPVGGTVTIKCQASQSIGSNLAWYQQRPGQPPKLLIYSASTLASGVSSRFKGSGSGTESTLTISGVQAADAATYYCQQGYSSSNVDNVFGGGTELEIL
notes: as for B1
B13: M0862 scFv (scFv)
scFv: PEQLMESGGGLVTPGGVLTLTCTASGFSFSSYGVNWVRQAPGKGLEWIGFIFGDGTTYYANWAKGRFTISKTSTTVDLKMTSPTTEDTATYFCARDGYGGYDYIINLWGQGTLVTVSSGGGGSGGGGSGGGGSGGGGASAQVLTQTPASVSAAVGGTVSISCQSSQSVVNNNWLAWYQQKPGQPPKLLIYKASTLESGVPSRFKGSGSGTQFTLTISGVQADDAATYYCLGEFSCSSADCHAFGGGTELEIL
notes: as for B1
B14: M0850 scFv (scFv)
scFv: QEQLEESGGGLVTPGTPLTLTCTASGFSLSSYAMIWVRQAPGKGLEWIGTINDGGTAFYANWVKGRFTISRTSTTVDLKMTSPTTEDTATYFCARAYGSNGDVYWGYVNLWGQGTLVTVSSGGGGSGGGGSGGGGSGGGGASELVMTQTPASVSEPVGGTVTIKCQASQSIGSNLAWYQQKPGQPPKLLIYAAANLASGVSSRFKGSRSGTEYTLTISGVQAADAATYYCQQGYSSSNVANVFGGGTELEIL
notes: as for B1
B15: M0853 scFv (scFv)
scFv: QQQLVESGGGLVTPGTPLTLTCTVSGFSLSNYAMGWVRQAPGKGLEWIGTINDGGTAFYANWLKGRFTISRTSTTVDLKITSPTTEDTATYFCARAYGSNGDVYWGYFNLWGQGTLVTVSSGGGGSGGGGSGGGGSGGGGASELVMTQTASPVSAAVGGTVTINCQASQSISSRSLSWYQQKPGQPPKLLIYEASKLASGVPSRFSGSGSGTQFTLTISGVQADDAATYYCQQGYSSSNVDNFGGGTEVVVK
notes: as for B1
B16: M1298 (bispecific antibody, V domains shown)
VH: EVQLLESGGGSVQPGGSLRLSCTVSGFSLSNYAMSWVRQAPGKGLEWIGIVSSGGTTYYASWAKGRFTISKDTSKNTVYLQMNSLRAEDTASYYCAKDLYYGPTTYSAANLWGQGTSVTVSS
VL: SYELTQPPSVSVSPGQTASITCTADTLSRSYASWYQQKPGQSPVLVIYRDTSRPSGIPERFSGSNSGNTATLTISGTQAMDEADYYCATRPWPGSNFQLFGGGTKLTVL
notes: Variant of humanized M0763; tested in SPR as anti-CD3 Fab x anti-MAGE-A4 scFv bispecific
B17: M1310 (bispecific antibody, V domains shown)
VH: EVQLLESGGGSVQPGGSLRLSCTVSGFSLSNYAMSWVRQAPGKGLEWIGIVSSGGTTYYASWAKGRFTISKDTSKNTVYLQMNSLRAEDTASYYCAKDLYYGPNTDYSAANLWGQGTSVTVSS
VL: B16 VL with W92S, P93S, L99A
notes: as for B16
B18: M1302 (bispecific antibody, V domains shown)
VH: B17 VH
VL: B16 VL with W92S, P93S
notes: as for B16
B19: M1309 (bispecific antibody, V domains shown)
VH: B16 VH with T104S, S107F, A108V
VL: B16 VL with W92S, P93S, L99A
notes: as for B16
B20: M1301 (bispecific antibody, V domains shown)
VH: B16 VH
VL: B16 VL with P91D, W92F, P93S
notes: as for B16
B21: M1299 (bispecific antibody, V domains shown)
VH: B16 VH
VL: B16 VL with W92F
notes: as for B16
B22: M1300 (bispecific antibody, V domains shown)
VH: B16 VH
VL: B16 VL with P91L, W92F, P93S
notes: as for B16
B23: M0848 scFv (scFv)
scFv: QEQLVESGGGLVTPGTPLTLTCTVSGFSLSSYAMGWVRQAPGKGLEWIGTINDGGTAFYASWVKGRFTISRTSTTVDLRVTSPTTEDTATYFCARAYGSNGDVYWGYFNLWGQGTLVTVSSGGGGSGGGGSGGGGSGGGGASELDLTQTPASVEVAVGGTVTIKCQASQSIGSYLSWYQQKPGQRPKLLIFRASTLASGVSSRFKGSGSGTQFTLTISGVECADAATYYCQQGYSSTNLDNVFGGGTEVVVK
notes: as for B1
B24: M0855 scFv (scFv)
scFv: QQQLEESGGGLVTPGTPLTLTCTVSGIDLSSYAMGWVRQAPGKGLEWIGTINDGGSAFYASWVKGRFTISRTSTTVDLKITSPTAEDTATYFCAKTYGTNGDVYWGYFNLWGQGTLVTISSGGGGSGGGGSGGGGSGGGGASELVMTQTPASVSEPVGGTVTIKCQASQSIGSNLAWYQQKPGQPPKLLIYYESILASGVPSRFSGSGSGTEYTLTISGAQADDAATYYCQQGYSSSNIDNAFGGGTEVVVK
notes: as for B1
B25: M0856 scFv (scFv)
scFv: B24 scFv with D240L
notes: as for B1

Tests used:
[1] = molecular target: T1, HLA-A2/MAGE-A4 complex, recombinant (HLA-A*02:01 extracellular domain, human b2m, MAGE-A4 peptide 230-239 …) (human, UniProt P04439 25-299 at identity 0.94); P61769 21-119); experiment: phage display biopanning and screening
T1 construct: also called MAGE-A4 pMHC; MAGE-A4/HLA-A2 complex

[2] = molecular target: T1, HLA-A2/MAGE-A4 complex, recombinant …; experiment: SPR, monovalent

| Binder | binding result [1] | Kd [2] |
| --- | --- | --- |
| B1 | binds | – |
| B2 | binds | – |
| B3 | binds | – |
| B4 | binds | – |
| B5 | binds | – |
| B6 | binds | – |
| B7 | binds | – |
| B8 | binds | – |
| B9 | binds | – |
| B10 | binds | – |
| B11 | binds | – |
| B12 | binds | – |
| B13 | binds | – |
| B14 | binds | – |
| B15 | binds | – |
| B16 | – | 0.07 nM |
| B17 | – | 0.35 nM |
| B18 | – | 0.6 nM |
| B19 | – | 0.09 nM |
| B20 | – | 0.12 nM |
| B21 | – | 0.05 nM |
| B22 | – | 0.12 nM |
| B23 | binds | – |
| B24 | binds | – |
| B25 | binds | – |
